Target: triggering receptor expressed on myeloid cells 1 (TREM-1), human, on monocytes / PBMCs of healthy donors (human) (UniProt Q9NP99)
Assay: cell-based or functional assay

Sequence of triggering receptor expressed on myeloid cells 1 (TREM-1), human, on monocytes / PBMCs of healthy donors (human) (Q9NP99 21-234 limits assumed): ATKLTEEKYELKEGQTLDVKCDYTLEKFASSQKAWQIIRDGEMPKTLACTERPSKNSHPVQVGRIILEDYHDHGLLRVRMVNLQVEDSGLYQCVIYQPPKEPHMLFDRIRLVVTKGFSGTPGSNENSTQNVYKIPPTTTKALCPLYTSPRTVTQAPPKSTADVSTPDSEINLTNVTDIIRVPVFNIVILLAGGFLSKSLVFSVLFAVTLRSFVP
Sequence of peptidoglycan-recognition-protein 1 (PGLYRP1) (O75594 22-196 limits assumed): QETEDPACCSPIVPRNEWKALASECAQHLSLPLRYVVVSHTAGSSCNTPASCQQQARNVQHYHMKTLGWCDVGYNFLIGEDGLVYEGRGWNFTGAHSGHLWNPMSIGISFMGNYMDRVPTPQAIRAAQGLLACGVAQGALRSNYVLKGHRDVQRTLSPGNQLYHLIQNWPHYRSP

“peptidoglycan-recognition-protein 1 (PGLYRP1) (from UniProt O75594 22-196) (ligand)” showed a Log2FC P + L vs P, ACOT7 mRNA in monocytes (log2 fold change) of 2.23, a Log2FC P + L vs P, CD52 mRNA in monocytes (log2 fold change) of 2.28 and a Log2FC P + L vs P, CD55 mRNA in monocytes (log2 fold change) of 2.39. The Log2FC P + L vs P, CDKN1A mRNA in monocytes (log2 fold change) was 2.3, the Log2FC P + L vs P, CHI3L1 mRNA in monocytes (log2 fold change) was 5.62 and the Log2FC P + L vs P, CISH mRNA in monocytes (log2 fold change) was 3.28. It also gave a Log2FC P + L vs P, CLEC12A mRNA in monocytes (log2 fold change) of 2.94, a Log2FC P + L vs P, DHRS9 mRNA in monocytes (log2 fold change) of 3.22 and a Log2FC P + L vs P, EHD1 mRNA in monocytes (log2 fold change) of 3.37. It also gave a Log2FC P + L vs P, FAM129A mRNA in monocytes (log2 fold change) of 2.31, a Log2FC P + L vs P, GALNT6 mRNA in monocytes (log2 fold change) of 2.09 and a Log2FC P + L vs P, IFNLR1 mRNA in monocytes (log2 fold change) of 3.07. The Log2FC P + L vs P, MFSD12 mRNA in monocytes (log2 fold change) was 3.07, the Log2FC P + L vs P, MTMR11 mRNA in monocytes (log2 fold change) was 2.58 and the Log2FC P + L vs P, NAMPT mRNA in monocytes (log2 fold change) was 3.47. The Log2FC P + L vs P, PIM2 mRNA in monocytes (log2 fold change) was 2.71, the Log2FC P + L vs P, PLK3 mRNA in monocytes (log2 fold change) was 2.67 and the Log2FC P + L vs P, SLC27A3 mRNA in monocytes (log2 fold change) was 2.74. It also gave a Log2FC P + L vs P, STARD4 mRNA in monocytes (log2 fold change) of 2.56, a Log2Fc.P + L vs P, CCL1 mRNA in monocytes (log2 fold change) of 8.39 and a Log2Fc.P + L vs P, CCL20 mRNA in monocytes (log2 fold change) of 8.73. It also gave a Log2Fc.P + L vs P, CXCL3 mRNA in monocytes (log2 fold change) of 7.21, a Log2Fc.P + L vs P, F3 mRNA in monocytes (log2 fold change) of 7.55 and a Log2Fc.P + L vs P, IL6 mRNA in monocytes (log2 fold change) of 9.16. It also gave a Log2Fc.P + L vs P, IL23A mRNA in monocytes (log2 fold change) of 6.96, a Log2Fc.P + L vs P, IL24 mRNA in monocytes (log2 fold change) of 6.66 and a Log2Fc.P + L vs P, IL36G mRNA in monocytes (log2 fold change) of 7.91. The Log2Fc.P + L vs P, ILIA (Interleukin 1, alpha) mRNA in monocytes (log2 fold change) was 6.86, the Log2Fc.P + L vs P, ILIRN (Interleukin 1 receptor antagonist) mRNA in monocytes (log2 fold change) was 7.28 and the Log2Fc.P + L vs P, INHBA mRNA in monocytes (log2 fold change) was 8.04. It also gave a Log2Fc.P + L vs P, MMP1 mRNA in monocytes (log2 fold change) of 9.31, a Log2Fc.P + L vs P, MMP7 mRNA in monocytes (log2 fold change) of 8.32 and a Log2Fc.P + L vs P, MMP10 mRNA in monocytes (log2 fold change) of 8.47. For the same substance, the Log2Fc.P + L vs P, OCSTAMP mRNA in monocytes (log2 fold change) was 7.62, the Log2Fc.P + L vs P, PTGS2 mRNA in monocytes (log2 fold change) was 8.32 and the Log2Fc.P + L vs P, RGS16 mRNA in monocytes (log2 fold change) was 7.52. For the same substance, the Log2Fc.P + L vs P, SCG5 mRNA in monocytes (log2 fold change) was 8.09, the Log2Fc.P + L vs P, TFPI2 mRNA in monocytes (log2 fold change) was 7.57 and the Log2Fc.P + L vs P, TNFSF15 mRNA in monocytes (log2 fold change) was 8.65.
